# Test results as given in patent US8008074B2, “Compositions and methods for improving bone mass through modulation of receptors of PTH and fragments thereof” (The UAB Research Foundation, priority 2006, dated 2011).
# Assays:
# Assay type in all cases: cell-based
# [1] = molecular target: PTH1R/LRP6 complex (Homo sapiens, UniProt Q03431)
# [2] = molecular target: T1, TGFβRII (Homo sapiens, UniProt P37173+Q03431); assay: TGFβRII internalization in HEK293-PTH1R cells; settings: stimulated with PTH for 30 minutes; 90% before stimulation
# T1 construct: expressed in transfected cells; host or cells: HEK293-PTH1R (HEK293 stably expressing HA-PTH1R)
# T1 sequence (P37173 23-567): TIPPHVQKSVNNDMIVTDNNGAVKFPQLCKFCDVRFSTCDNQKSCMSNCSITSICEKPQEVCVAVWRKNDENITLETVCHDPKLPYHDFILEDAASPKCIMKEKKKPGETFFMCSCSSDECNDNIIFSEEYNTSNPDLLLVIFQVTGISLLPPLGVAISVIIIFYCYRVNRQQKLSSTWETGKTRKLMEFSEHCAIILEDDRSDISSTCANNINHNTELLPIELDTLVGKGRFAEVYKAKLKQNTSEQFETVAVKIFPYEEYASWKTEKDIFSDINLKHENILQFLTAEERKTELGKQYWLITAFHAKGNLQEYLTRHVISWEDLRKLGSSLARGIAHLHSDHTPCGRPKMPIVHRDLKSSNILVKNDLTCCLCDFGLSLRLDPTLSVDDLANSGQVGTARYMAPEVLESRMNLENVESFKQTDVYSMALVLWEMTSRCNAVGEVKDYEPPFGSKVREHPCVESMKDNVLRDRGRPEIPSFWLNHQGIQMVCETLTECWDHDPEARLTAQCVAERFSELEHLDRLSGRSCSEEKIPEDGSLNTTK
# T1 sequence (Q03431 27-593): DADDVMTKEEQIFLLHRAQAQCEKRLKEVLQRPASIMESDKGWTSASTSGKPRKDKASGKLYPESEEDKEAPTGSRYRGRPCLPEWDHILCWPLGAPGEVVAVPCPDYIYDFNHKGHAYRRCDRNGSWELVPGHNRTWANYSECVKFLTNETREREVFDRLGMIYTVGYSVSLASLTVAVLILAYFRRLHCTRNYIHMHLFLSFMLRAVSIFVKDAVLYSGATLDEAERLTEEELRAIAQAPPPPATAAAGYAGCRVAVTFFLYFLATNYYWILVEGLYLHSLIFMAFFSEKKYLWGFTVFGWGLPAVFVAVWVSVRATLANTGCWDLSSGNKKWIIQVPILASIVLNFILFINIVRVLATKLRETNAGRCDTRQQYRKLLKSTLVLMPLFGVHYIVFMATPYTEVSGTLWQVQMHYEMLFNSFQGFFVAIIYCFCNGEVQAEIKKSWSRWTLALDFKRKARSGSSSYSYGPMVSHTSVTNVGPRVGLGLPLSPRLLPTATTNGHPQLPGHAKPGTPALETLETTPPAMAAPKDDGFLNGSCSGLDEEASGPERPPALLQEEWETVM
# Protocol: TGFβRII tagged with Flag epitope was expressed in HEK293 cells that were expressing PTH1R or not, and the transfected cells were treated with PTH or control.
# In particular, TGFβ1 treatment increases the number of cell membrane PTH1R. Therefore, the potential functional relationship of PTH with TGFβRII was examined. TGFβRII tagged with Flag epitope was transiently expressed in embryonic kidney 293 (HEK293) cells or HEK293 cells stably expressing PTH1R with HA (HEK293-PTH1R). In the absence of PTH, TGFβRII was present predominantly at the cell surface, with a few puncta in the cytosol (data not shown). […] To visualize the effect of PTH to the TβRII, a red fluorescent PTH (1-34) was synthesized in which the TMR fluorophore was attached to the side chain of the lysine residue at position 13 in PTH (1-34) (PTH^TMR).
# To quantitate these observations, the cells were fixed at various time points and classified as three types: (1) TGFβRII is dominantly present at the cell surface, (2) TGFβRII locates to both the cell surface and vesicles in the cytosol, and (3) TGFβRII mainly localizes to the cytosol as vesicles. Before stimulation with PTH, TGFβRII was present at the cell surface in 90% of the cells. […] From 10 to 30 minutes after stimulation with PTH (1-34), cell-surface TβRII levels were reduced, indicative of receptor clearance from the cell surface membrane (FIG. 10B). […]
# [3] = molecular target: T2, TGFβRII/PTH1R interaction (Homo sapiens, UniProt P37173+Q03431); assay: Co-immunoprecipitation of TGFβRII and PTH1R in 293 cells; settings: cotransfected HEK293 cells; 10% FBS medium; PTH stimulation
# T2 construct: The 293T cells endogenously expressed TGFβRII; endogenous in cells; host or cells: 293T
# T2 sequence (Q03431 27-593): as above
# T2 sequence (P37173 23-567): as the sequence (P37173 23-567) above
# Protocol: Human embryonic kidney 293T cells in DMEM with 10% serum were treated with vehicle (water), TGF-β (2 ng/ml), or PTH (1-34) (50 nM) for 24 hours. The 293T cells endogenously expressed TGFβRII. The cells were cultured in DMEM with 10% serum and were split at 30%-40% confluent.
# Immunoprecipitation assays were performed as described previously (Shi et al., 2004, J. Cell. Biol. 164:291-300). TGFβRII was immunoprecipitated from the cell extracts using anti-TGFβRII antibody (Santa Cruz Biotechnology, Inc.; 1:250 dilution), and the immunocomplex was detected by Western blotting with an antibody specific for PTH1R (Santa Cruz Biotechnology, Inc.; 1:200 dilution) to detect PTH1R protein. […] Furthermore, the interaction of PTH1R with TGFβRII can be in the form of monomers or dimers.
# Next, the interaction was examined using a biochemical approach. PTH1R-HA was contransfected in HEK293 cells with Flag-TβRII. The cell lysate was subjected to HA immunoprecipitation, and associated TβRII was immunoblotted with anti-Flag antibody. TβRII specifically coprecipitated with PTH1R (FIG. 11) in 10% FBS medium, and the interaction was enhanced by PTH stimulation, whereas the kinase-dead mutant of TβRII lost the interaction with PTH1R (data not shown) even with treatment of PTH. The interaction of endogenous PTH1R and TβRII was also examined. […]
# [4] = molecular target: T3, LRP5 (Homo sapiens, UniProt O75197); assay: LRP5 PPPSP phosphorylation in HEK293 cells (Ab1490 Western blot); settings: HEK293 cells transfected with HA-tagged LRP5; at 45 minutes; 5×10^−7 M PTH (1-84)
# T3 construct: expressed in transfected cells; host or cells: HEK293
# T3 sequence (O75197 32-1615, species assumed): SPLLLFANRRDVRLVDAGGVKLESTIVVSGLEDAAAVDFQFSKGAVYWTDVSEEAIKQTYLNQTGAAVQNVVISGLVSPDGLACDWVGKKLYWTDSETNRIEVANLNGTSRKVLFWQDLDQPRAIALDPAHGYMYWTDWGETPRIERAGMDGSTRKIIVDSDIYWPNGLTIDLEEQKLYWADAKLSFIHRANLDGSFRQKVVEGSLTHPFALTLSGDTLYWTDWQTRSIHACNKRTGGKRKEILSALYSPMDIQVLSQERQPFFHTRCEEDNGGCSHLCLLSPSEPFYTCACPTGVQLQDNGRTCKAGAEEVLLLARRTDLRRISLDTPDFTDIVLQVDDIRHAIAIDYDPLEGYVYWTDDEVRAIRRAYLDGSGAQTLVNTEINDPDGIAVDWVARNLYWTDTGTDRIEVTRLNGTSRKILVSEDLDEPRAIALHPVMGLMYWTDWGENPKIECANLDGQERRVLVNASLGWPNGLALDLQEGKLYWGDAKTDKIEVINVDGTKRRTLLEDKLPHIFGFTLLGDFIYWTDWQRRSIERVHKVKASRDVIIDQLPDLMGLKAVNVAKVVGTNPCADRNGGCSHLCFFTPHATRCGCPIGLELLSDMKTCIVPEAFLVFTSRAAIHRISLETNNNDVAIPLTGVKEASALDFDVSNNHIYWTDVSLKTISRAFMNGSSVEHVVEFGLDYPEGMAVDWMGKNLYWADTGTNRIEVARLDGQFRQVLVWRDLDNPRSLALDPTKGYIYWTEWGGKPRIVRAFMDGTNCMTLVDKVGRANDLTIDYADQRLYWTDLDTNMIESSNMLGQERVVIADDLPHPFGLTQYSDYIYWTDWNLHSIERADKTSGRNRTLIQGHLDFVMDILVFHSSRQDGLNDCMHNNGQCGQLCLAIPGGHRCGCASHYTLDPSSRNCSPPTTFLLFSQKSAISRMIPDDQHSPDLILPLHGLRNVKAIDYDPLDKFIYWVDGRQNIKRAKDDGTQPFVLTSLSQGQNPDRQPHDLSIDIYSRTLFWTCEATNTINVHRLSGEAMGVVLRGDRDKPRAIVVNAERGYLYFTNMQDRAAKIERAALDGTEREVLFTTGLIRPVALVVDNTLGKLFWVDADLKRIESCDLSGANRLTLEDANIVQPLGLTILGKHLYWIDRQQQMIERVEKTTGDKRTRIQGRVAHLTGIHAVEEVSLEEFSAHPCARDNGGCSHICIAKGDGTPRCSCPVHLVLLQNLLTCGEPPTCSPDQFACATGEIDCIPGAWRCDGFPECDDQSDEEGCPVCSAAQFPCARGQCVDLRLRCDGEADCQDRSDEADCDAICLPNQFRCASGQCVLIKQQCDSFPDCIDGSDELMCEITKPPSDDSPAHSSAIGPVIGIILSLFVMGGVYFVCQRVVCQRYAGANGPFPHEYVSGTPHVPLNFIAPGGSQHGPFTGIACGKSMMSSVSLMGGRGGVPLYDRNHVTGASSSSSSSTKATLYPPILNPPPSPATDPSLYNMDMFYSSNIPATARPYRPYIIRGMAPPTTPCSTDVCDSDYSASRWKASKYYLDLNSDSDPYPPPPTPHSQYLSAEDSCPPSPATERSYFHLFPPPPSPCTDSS
# Protocol: HEK293 cells transfected with HA-tagged LRP5 were treated with conditioned medium containing Wnt-3a (lane 1), control medium with 5×10^−7 M PTH (1-84) for the indicated time periods (lane 3-5), or without PTH treatment (lane 2). Phosphorylated LRP5 was detected by Western blotting of the anti-HA immunoprecipitates with Ab1490, which specifically recognizes phosphorylated PPPSP sites within LRP5/6. […] VSVG-tagged LRP6 was cotransfected into HEK 293 cells with HA-Axin and GSK3β, and the cells were treated with or without 10^−7 M PTH (1-84) for the indicated time periods. The LRP6-associated Axin was determined by Western blotting of the anti-VSVG immunoprecipitates with anti-HA antibody. […] The LRP6-associated Axin was determined by Western blotting of the anti-VSVG immunoprecipitates with anti-HA antibody. […] The association of axin with wild type and mutant proteins was determined by Western blotting of the anti-VSVG immunoprecipitates with anti-HA antibody. […] Then luciferase activities were determined.
# UMR-106 cells were treated with either PTH or Wnt-3a. The cell lysates were immunoprecipitated for endogenous LRP6, and the precipitated immunocomplexes were detected by Western blotting with an antibody that specifically recognizes the phosphorylated PPPSP motifs (aa, 1490) (Tamai et al., 2004). […]
# [5] = system: LRP6/Axin binding; assay: Axin-LRP6 binding immunoprecipitation assay; settings: without added GSK3β; data not shown
# [6] = system: β-catenin; assay: β-catenin protein levels in HEK293 cells; settings: different concentrations and time points
# Protocol: In parallel, proteins from cytosolic and nuclear fractions were isolated from the UMR 106 cells after a 30 minute treatment with control medium, Wnt-3a conditioned medium, or 5×10^−7 M PTH (1-84). The proteins were transferred to a blotting membrane, and the immunoblots were stained with an anti-β-catenin antibody or antibody to a control protein (α-tubulin or histone). […] Moreover, cytosolic and nuclear β-catenin protein levels also were examined in embryonic kidney epithelial cells (HEK293) that were treated with different concentrations of PTH and harvested at different time points.
substance,measurement,setting,value
"PTH: Parathyroid hormone ligand, form not stated at the place; figure legends give PTH (1-84) or PTH (1-34)",enhancement of interaction of PTH1R with LRP6N or LRP6,[1],did not enhance the interaction of PTH1R with LRP6N or LRP6
same,"LRP6-associated PTH ligand (anti-VSVG immunoprecipitates, anti-PTH blot)","[1]; HEK 293 cells, 5×10^−7 M PTH (1-84) for 1 hour",immunoprecipitated only when both LRP6 and PTH1R were cotransfected
same,cells exhibiting cell-surface localization of TGFβRII,[2],less than 10%
same,interaction of PTH1R-HA with Flag-TβRII,[3],enhanced
same,LRP5 phosphorylation (PPPSP),[4],dramatically stimulated LRP5 phosphorylation
same,"Axin/LRP6 binding, PTH alone",[5],undetectable
same,cytosolic and nuclear β-catenin protein levels,[6],stimulates protein levels of β-catenin in both the cytoplasm and the nucleus in a concentration and time dependent manner
